Among the data in publication doi:10.1101/2025.08.30.673243 are median residence time of NIPBL on loops, no PDS5B added, residence time of NIPBL on loops on which NIPBL was exchanged with PDS5B and median time for which NIPBL and PDS5B were both on the loop during exchange values, retold here.

Test [1] concerns the target HeLa cohesin (unlabelled cohesin-STAG1) (human (endogenous in HeLa)) (UniProt Q14683). Put plainly: single-molecule fluorescence imaging of DNA loop extrusion.
The target is the same in test [2]. The description is as above. The source holds these as a separate data set.

Chain of UniProt Q14683 (Q14683 whole entry, chain 1 of 4): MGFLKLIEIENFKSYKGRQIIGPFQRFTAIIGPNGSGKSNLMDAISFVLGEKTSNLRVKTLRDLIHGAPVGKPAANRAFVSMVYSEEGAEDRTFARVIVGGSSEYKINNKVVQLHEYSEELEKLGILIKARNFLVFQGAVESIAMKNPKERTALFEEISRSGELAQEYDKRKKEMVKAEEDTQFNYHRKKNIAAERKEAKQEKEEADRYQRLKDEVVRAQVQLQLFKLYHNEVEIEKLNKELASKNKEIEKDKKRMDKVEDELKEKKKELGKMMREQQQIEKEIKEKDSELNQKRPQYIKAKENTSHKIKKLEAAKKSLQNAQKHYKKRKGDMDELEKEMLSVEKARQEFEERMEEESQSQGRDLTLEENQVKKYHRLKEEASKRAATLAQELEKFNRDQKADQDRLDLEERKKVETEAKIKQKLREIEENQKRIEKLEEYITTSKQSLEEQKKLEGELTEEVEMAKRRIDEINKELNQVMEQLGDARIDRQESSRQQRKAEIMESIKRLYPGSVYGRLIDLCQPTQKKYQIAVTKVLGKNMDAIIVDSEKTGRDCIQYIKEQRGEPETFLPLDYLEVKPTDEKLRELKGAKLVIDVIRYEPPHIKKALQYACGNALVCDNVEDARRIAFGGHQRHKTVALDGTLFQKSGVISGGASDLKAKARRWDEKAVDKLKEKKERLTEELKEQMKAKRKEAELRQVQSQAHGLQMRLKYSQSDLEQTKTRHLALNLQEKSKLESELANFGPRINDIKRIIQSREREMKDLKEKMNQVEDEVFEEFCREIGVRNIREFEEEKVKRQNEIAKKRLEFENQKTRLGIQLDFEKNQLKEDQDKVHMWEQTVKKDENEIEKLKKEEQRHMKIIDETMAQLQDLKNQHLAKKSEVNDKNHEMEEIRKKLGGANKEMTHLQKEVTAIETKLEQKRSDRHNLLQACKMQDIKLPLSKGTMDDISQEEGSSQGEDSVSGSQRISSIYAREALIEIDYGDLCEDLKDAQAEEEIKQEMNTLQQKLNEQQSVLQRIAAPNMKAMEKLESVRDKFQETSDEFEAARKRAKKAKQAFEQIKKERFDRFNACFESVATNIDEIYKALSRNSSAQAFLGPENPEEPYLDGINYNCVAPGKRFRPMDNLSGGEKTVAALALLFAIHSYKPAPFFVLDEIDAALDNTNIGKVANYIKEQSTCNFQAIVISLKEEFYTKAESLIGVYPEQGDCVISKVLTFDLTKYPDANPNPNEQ
Chain of UniProt Q14683 (Q9UQE7 whole entry, chain 2 of 4, further chain): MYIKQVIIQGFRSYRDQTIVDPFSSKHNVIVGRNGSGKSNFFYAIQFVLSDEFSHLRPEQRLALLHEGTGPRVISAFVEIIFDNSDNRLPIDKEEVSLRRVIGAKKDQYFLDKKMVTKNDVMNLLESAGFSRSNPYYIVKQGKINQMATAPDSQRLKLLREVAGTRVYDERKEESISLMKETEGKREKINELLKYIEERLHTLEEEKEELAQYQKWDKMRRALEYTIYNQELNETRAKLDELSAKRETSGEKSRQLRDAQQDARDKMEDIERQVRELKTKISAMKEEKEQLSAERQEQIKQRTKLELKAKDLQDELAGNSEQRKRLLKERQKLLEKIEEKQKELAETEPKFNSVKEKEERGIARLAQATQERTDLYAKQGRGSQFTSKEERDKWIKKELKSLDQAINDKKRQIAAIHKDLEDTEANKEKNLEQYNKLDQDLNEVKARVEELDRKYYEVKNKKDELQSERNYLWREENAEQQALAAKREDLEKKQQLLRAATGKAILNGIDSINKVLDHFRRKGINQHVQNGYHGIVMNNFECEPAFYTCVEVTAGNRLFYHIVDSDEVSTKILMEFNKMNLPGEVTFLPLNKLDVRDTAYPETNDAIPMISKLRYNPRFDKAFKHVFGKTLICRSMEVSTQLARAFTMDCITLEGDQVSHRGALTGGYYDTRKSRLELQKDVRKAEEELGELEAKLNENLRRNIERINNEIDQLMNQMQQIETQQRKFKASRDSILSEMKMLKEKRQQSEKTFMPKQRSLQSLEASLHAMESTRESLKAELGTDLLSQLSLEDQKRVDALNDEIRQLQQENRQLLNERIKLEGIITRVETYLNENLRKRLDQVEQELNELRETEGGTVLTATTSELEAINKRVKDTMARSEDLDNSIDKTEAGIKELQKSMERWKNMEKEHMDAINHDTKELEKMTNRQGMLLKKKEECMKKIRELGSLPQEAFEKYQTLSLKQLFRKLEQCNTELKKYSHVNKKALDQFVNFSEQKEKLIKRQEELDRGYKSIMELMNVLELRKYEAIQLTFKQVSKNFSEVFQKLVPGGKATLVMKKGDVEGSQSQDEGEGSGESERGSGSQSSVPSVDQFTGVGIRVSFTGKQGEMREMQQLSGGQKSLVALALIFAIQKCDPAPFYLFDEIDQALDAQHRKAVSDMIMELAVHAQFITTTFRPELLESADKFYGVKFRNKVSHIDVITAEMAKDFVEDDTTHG
Chain of UniProt Q14683 (O60216 whole entry, chain 3 of 4, further chain): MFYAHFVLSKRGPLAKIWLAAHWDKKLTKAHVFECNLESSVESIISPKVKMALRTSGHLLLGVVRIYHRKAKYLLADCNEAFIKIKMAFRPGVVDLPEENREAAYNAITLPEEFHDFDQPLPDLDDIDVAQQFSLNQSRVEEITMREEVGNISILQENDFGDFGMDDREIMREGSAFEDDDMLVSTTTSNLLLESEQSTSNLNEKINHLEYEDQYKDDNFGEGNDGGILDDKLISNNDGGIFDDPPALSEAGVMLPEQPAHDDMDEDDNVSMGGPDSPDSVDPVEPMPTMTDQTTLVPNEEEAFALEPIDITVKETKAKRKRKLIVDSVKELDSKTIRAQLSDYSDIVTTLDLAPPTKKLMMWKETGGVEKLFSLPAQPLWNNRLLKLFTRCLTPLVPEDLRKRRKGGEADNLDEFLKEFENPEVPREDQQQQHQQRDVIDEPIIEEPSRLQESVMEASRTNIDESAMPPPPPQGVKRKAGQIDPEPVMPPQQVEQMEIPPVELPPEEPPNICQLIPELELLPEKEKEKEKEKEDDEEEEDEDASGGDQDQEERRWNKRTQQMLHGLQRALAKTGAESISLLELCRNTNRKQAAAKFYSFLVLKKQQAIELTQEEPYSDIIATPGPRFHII
Chain of UniProt Q14683 (Q8WVM7 whole entry, chain 4 of 4, further chain): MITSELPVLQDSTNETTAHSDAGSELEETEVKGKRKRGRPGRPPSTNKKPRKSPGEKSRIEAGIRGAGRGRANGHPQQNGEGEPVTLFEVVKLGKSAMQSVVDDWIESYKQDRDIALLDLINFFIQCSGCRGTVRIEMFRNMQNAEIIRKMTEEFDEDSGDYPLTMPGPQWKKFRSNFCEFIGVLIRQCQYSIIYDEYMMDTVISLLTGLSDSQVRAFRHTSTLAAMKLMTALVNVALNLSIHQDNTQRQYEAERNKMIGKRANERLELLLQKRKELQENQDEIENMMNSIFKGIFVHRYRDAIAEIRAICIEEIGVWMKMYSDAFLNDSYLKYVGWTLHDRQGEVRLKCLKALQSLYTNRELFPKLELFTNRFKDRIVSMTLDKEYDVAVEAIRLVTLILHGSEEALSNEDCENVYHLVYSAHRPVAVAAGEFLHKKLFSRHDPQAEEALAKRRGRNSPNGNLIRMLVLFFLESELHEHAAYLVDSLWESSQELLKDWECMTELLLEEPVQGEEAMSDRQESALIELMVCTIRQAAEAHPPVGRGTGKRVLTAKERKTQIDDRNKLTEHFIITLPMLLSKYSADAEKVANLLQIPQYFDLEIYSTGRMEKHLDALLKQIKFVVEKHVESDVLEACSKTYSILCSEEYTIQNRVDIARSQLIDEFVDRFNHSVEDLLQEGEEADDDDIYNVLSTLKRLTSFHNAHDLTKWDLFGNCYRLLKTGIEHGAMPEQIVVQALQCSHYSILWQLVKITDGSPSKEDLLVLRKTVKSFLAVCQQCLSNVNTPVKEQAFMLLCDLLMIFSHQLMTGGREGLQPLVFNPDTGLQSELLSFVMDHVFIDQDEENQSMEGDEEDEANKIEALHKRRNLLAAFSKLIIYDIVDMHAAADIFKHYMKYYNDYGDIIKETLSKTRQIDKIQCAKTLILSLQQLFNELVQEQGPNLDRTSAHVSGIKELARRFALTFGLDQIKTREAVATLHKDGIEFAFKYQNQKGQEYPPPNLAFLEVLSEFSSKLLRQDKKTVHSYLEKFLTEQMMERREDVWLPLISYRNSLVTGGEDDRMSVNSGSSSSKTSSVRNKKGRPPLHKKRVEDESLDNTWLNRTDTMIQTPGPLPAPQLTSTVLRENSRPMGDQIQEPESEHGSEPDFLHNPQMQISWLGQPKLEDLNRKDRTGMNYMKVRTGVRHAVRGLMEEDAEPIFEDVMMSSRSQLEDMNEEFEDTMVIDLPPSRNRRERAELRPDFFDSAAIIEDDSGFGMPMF

In test [1], “NIPBL-ΔN labelled with ATTO550 (BB241) (domain or fragment)” yielded a median residence time of NIPBL on loops, no PDS5B added of 50 s and a residence time of NIPBL on loops on which NIPBL was exchanged with PDS5B of 38 s.

B1: PDS5B labelled with JF646 (natural protein)
chain: MAHSKTRTNDGKITYPPGVKEISDKISKEEMVRRLKMVVKTFMDMDQDSEEEKELYLNLALHLASDFFLKHPDKDVRLLVACCLADIFRIYAPEAPYTSPDKLKDIFMFITRQLKGLEDTKSPQFNRYFYLLENIAWVKSYNICFELEDSNEIFTQLYRTLFSVINNGHNQKVHMHMVDLMSSIICEGDTVSQELLDTVLVNLVPAHKNLNKQAYDLAKALLKRTAQAIEPYITNFFNQVLMLGKTSISDLSEHVFDLILELYNIDSHLLLSVLPQLEFKLKSNDNEERLQVVKLLAKMFGAKDSELASQNKPLWQCYLGRFNDIHVPIRLECVKFASHCLMNHPDLAKDLTEYLKVRSHDPEEAIRHDVIVSIVTAAKKDILLVNDHLLNFVRERTLDKRWRVRKEAMMGLAQIYKKYALQSAAGKDAAKQIAWIKDKLLHIYYQNSIDDRLLVERIFAQYMVPHNLETTERMKCLYYLYATLDLNAVKALNEMWKCQNLLRHQVKDLLDLIKQPKTDASVKAIFSKVMVITRNLPDPGKAQDFMKKFTQVLEDDEKIRKQLEVLVSPTCSCKQAEGCVREITKKLGNPKQPTNPFLEMIKFLLERIAPVHIDTESISALIKQVNKSIDGTADDEDEGVPTDQAIRAGLELLKVLSFTHPISFHSAETFESLLACLKMDDEKVAEAALQIFKNTGSKIEEDFPHIRSALLPVLHHKSKKGPPRQAKYAIHCIHAIFSSKETQFAQIFEPLHKSLDPSNLEHLITPLVTIGHIALLAPDQFAAPLKSLVATFIVKDLLMNDRLPGKKTTKLWVPDEEVSPETMVKIQAIKMMVRWLLGMKNNHSKSGTSTLRLLTTILHSDGDLTEQGKISKPDMSRLRLAAGSAIVKLAQEPCYHEIITLEQYQLCALAINDECYQVRQVFAQKLHKGLSRLRLPLEYMAICALCAKDPVKERRAHARQCLVKNINVRREYLKQHAAVSEKLLSLLPEYVVPYTIHLLAHDPDYVKVQDIEQLKDVKECLWFVLEILMAKNENNSHAFIRKMVENIKQTKDAQGPDDAKMNEKLYTVCDVAMNIIMSKSTTYSLESPKDPVLPARFFTQPDKNFSNTKNYLPPEMKSFFTPGKPKTTNVLGAVNKPLSSAGKQSQTKSSRMETVSNASSSSNPSSPGRIKGRLDSSEMDHSENEDYTMSSPLPGKKSDKRDDSDLVRSELEKPRGRKKTPVTEQEEKLGMDDLTKLVQEQKPKGSQRSRKRGHTASESDEQQWPEEKRLKEDILENEDEQNSPPKKGKRGRPPKPLGGGTPKEEPTMKTSKKGSKKKSGPPAPEEEEEEERQSGNTEQKSKSKQHRVSRRAQQRAESPESSAIESTQSTPQKGRGRPSKTPSPSQPKKNVRVGRSKQAATKENDSSEEVDVFQGSSPVDDIPQEETEEEEVSTVNVRRRSAKRERR
modifications: JF646-HaloTag ligand on the HaloTag
The molecule B1 yielded a median time for which NIPBL and PDS5B were both on the loop during exchange in test [2] of 3 s.
